The values that follow come from patent publication US6323395A, “Nucleotide sequences of maize and soybean β-Ketoacyl-Acyl Carrier Protein Synthase II and their use in the regulation of fatty acid content of oil” (Dow AgroSciences LLC, priority 1998, dated 2001).

The Km is the concentration of substrate that gives half-maximal velocity.

Like-named read-outs stand apart in the source and are kept apart here.

For data set [1], the target named is C16:0-ACP (palmitoyl-acyl carrier protein) made from bought ACP (Escherichia coli (strain K12)) (UniProt P0A6A8).
In data set [2] the test system is maize β-Ketoacyl-Acyl Carrier Protein Synthase II (KAS II), purified from seed. Briefly: KAS II activity assay, Km from double reciprocal plots. In kind it is biochemical. As to conditions: cerulenin-Sepharose fraction, substrate not named, condensing activity towards C16:0-ACP. On the procedure: (§1) Malonyl CoA-ACP transacylase, hereafter MTA, was purified from E. coli as described by Alberts et al. (1969) Methods in Enzymology, 14:50-53. Transacylase reactions were performed in 100 μL of reaction mixture [100 mM KH2 PO4, pH 6.5, 100 μM ACP, 100 μM malonyl CoA, 10 nCi [2-^4 C] malonyl CoA (43.1 Ci/mol), and 2 mM dithiothreitol (DTT). ACP was incubated with an equal volume of 20 mM DTT for 15 min before being added to the reaction mixture. Reactions were started by adding 10 μL of either enzyme alone or enzyme that had been incubated for 15 min with an inhibitor and allowed to proceed for 5 min at 23° C. Reactions, which were terminated by adding 400 μL of ice cold 5% (v/v) perchloric acid, were then placed on ice for 20 min before being centrifuged for 5 min at 14,000×g. Pellets were washed 3× with 5% perchloric acid before being resuspended in 500 µL KH2 PO4 buffer and counted using scintillation. KAS II activity was measured by modifying the method of Garwin et al. (1980) J. Biological Chem. 255:11949-11956. […] The toluene layer (300 μL) was added to 5 mL Aquasol (NEN, Boston, Mass.) and incorporated [2-^4 ] malonyl CoA was determined by scintillation counting. […]

The subject of data set [3] is soybean β-Ketoacyl-Acyl Carrier Protein Synthase II (KAS II), purified from seed. The data set is described as above. It is filed as biochemical. Particulars: cerulenin-Sepharose fraction, substrate not named, condensing activity towards C16:0-ACP. The procedure: as §1
The test system of data set [4] is KAS II (soybean and maize KAS II expressed in E. coli). Briefly: Synthase assay with cerulenin, condensation of [2-14C]malonyl-CoA with acyl-ACP. It is filed as biochemical. As to conditions: cerulenin 50 μM. On the procedure:
Malonyl CoA-ACP transacylase, hereafter MTA, was purified from E. coli as described by Alberts et al. (1969) Methods in Enzymology, 14:50-53. Transacylase reactions were performed in 100 μL of reaction mixture [100 mM KH2 PO4, pH 6.5, 100 μM ACP, 100 μM malonyl CoA, 10 nCi [2-^4 C] malonyl CoA (43.1 Ci/mol), and 2 mM dithiothreitol (DTT). ACP was incubated with an equal volume of 20 mM DTT for 15 min before being added to the reaction mixture. Reactions were started by adding 10 μL of either enzyme alone or enzyme that had been incubated for 15 min with an inhibitor and allowed to proceed for 5 min at 23° C. […] Pellets were washed 3× with 5% perchloric acid before being resuspended in 500 µL KH2 PO4 buffer and counted using scintillation. KAS II activity was measured by modifying the method of Garwin et al. (1980) J. Biological Chem. 255:11949-11956. […] The toluene layer (300 μL) was added to 5 mL Aquasol (NEN, Boston, Mass.) and incorporated [2-^4 ] malonyl CoA was determined by scintillation counting.
For enzymatic analysis of E coli expressed soybean and maize KAS II, substrates were made as follows: ACP (Sigma Chemical Co.) was further purified by three cycles of precipitation at pH 4.0 using 10% (v/v) acetic acid followed by resolubilization in 50 mM Tris-HCl, pH 8.0. […] Incorporated malonyl-CoA was extracted into toluene prior to quantitating by liquid scintillation counting. […]

Data set [5] deals with KAS I. Described as above. Particulars: cerulenin at concentrations of 5 μM or greater. In kind it is biochemical.
The target in data set [6] is C16:0-ACP (palmitoyl-acyl carrier protein) made from bought ACP (Escherichia coli (strain K12)) (UniProt P0A6A8). This is another data set of the same source.
Target sequence in this assay (P0A6A8 2-78 limits assumed): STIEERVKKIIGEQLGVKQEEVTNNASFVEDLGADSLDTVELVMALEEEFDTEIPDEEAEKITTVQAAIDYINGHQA
The target of data set [7] is C10:0-ACP (decanoic acid acyl-acyl carrier protein) made from bought ACP (Escherichia coli (strain K12)) (UniProt P0A6A8).
Sequence of C10:0-ACP (decanoic acid acyl-acyl carrier protein) made from bought ACP (Escherichia coli (strain K12)) (P0A6A8 2-78 limits assumed): as above
In data set [8] the target is C16:0-ACP (palmitoyl-acyl carrier protein) made from bought ACP (Escherichia coli (strain K12)) (UniProt P0A6A8). This is another data set of the same source.
Target sequence in this assay (P0A6A8 2-78 limits assumed): as above
Data set [9] has as its target C10:0-ACP (decanoic acid acyl-acyl carrier protein) made from bought ACP (Escherichia coli (strain K12)) (UniProt P0A6A8). This is another data set of the same source.
Data set [10] concerns the molecule itself. Briefly: gel filtration on Superdex 200: native molecular weight 82,000±5,000 against a subunit size of 46 kDa by SDS-PAGE. On the procedure:
The molecular mass of native KAS II was determined by gel filtration using a Superdex 200 column (Pharmacia LKB Biotechnology, Inc.) equilibrated in 25 mM KH_2PO_4 (pH7.0). The column was calibrated using protein standards (BioRAD, Hercules, Calif.), which included blue dextran, thyroglobin (M_r, 670,000), bovine gamma globulin (Mr_r, 158,000), chicken ovalbumin (M_r, 44,000), equine myoglobin (M_r, 17,000), vitamin B-12 (M_r, 1,350).
In general terms: In gel filtration, larger molecules generally elute earlier.

Take “soybean β-Ketoacyl-Acyl Carrier Protein Synthase II purified from soybean seed (enzyme)”: the Km in data set [1] came to 18 µM.

palmitoyl-ACP [C16:0-ACP]: the results for the Michaelis-Menten constant (Km) in data set [2] and in [3] were 14.1 µM and 18 µM, respectively.

As to `C/C=C/C/C=C/CCC(=O)[C@H]1O[C@H]1C(N)=O` [cerulenin], the “inhibition of KAS II” value in data set [4] was “about 50%”. Further, the “inhibition of KAS I activity” value in [5] is given as “completely inhibits”.

B1: maize β-Ketoacyl-Acyl Carrier Protein Synthase II purified from maize seed (enzyme)
chain: MAVALQAERSVIEKKKPDIKQRRVVVTGMGVVTPLGHDPDVFYNNLLDGVSGISEIERFDCSNFPTRIAGEIKSFSTDGWVAPKLAKRMDKFMLYLITAGKKALENGGLTEELRNELDKTRCGVLIGSAMGGMKVFNDAIEALRVSYKKMNPFCVPFATTNMGSAILAMDLGWMGPNYSISTACATSNFCILNAANHIRRGEADVMLCGGSDAPLIPIGLGGFVACRALSQRNSDPTKASRPWDMGRDGFVMGEGAGVLVLEELEHAKERGATIYAEFLGGSFTCDAYHMTEPHPEGRGIALCIEKALADAGVAREEINYVNAHATSTQAGDLKEYEAIVRCFRQNPQLRVNSTKSMTGHLIGAAGGIEAVASIQAIRTGWVHPNLNLENPEDTVDVGVLVGSQKERCEVKVALSNSFGFGGHNSSILFAPFK
As for B1, the Km in data set [1] was 14.1 µM.

B2: maize KAS II expressed in E. coli from pDAB388 (enzyme)
chain: B1 chain
As for B2, the synthase activity: condensation of [2-14C]malonyl-CoA with C16:0-ACP to C18:0-ACP (counts per minute per minute) in data set [6] is 909. Moreover, the synthase activity: condensation of [2-14C]malonyl-CoA with C10:0-ACP to C12:0-ACP (counts per minute per minute) in data set [7] was 734.

B3: first soybean KAS II expressed in E. coli from pDAB393 (enzyme)
chain: MAVALQPTQEVTTIKKPPTKQRRVVVTGLGVVTPLGHEPDIFYNNLLDGVSGISEIETFDCAEYPTRIAGEIKSFSTDGWVAPKLSKRMDKFMLYMLTAGKKALVDGGITDDVMDELNKDKCGVLIGSAMGGMKVFNDAIEALRISYKKMNPFCVPFATTNMGSAMLAMDLGWMGPNYSISTACATSNFCILNAANHIIRGEADVMLCGGSDAAIIPIGLGGFVACRALSQRNTDPTKASRPWDINRDGFVMGEGAGVLLLEELEHAKKRGATIYAEFLGGSFTCDAYHVTEPRPDGAGVILCIEKALAQSGVSKEDVNYINAHATSTPAGDLKEYQALMHCFGQNPKLRVNSTKSMIGHLLGAAGAVEAVATIQAIRTGWVHPNINLEKPDNGVDAKVLVGSKKERLDVKAALSNSFGFGGHNSSIIFAPYK
In data set [8], B3 yielded a synthase activity: condensation of [2-14C]malonyl-CoA with C16:0-ACP to C18:0-ACP (counts per minute per minute) of 1930. This molecule had a synthase activity: condensation of [2-14C]malonyl-CoA with C10:0-ACP to C12:0-ACP (counts per minute per minute) in data set [9] of 207. Moreover, the binding result in [10] is given as “binds”.

B4: second soybean KAS II expressed in E. coli from pDAB394 (enzyme)
chain: MAVALQPTQEITTIKKPPTKQRRVVVTGLGVVTPLGHEPDIFYNNLLDGASGISEIETFDCAEYPTRIAGEIKSFSTDGWVAPKLSKRMDKFMLYMLTAGKKALVDGGITDDVMDELNKEKCGVLIGSAMGGMKVFNDAIEALRISYKKMKPFCVPFATTNMGSAMLAMDLGWMGPNYSISTACATSNFCILNAANHIIRGEADVMLCGGSDAAIIPIGLGGFVACRALSQRNTDPTKASRPWDINRDGFVMGEGAGVLLLEELEHAKERGATIYAEFLGGSFTCDAYHVTEPRPDGAGVILCIEKALAQSGVSKEDVNYINAHATSTPAGDLKEYQALMHCFGQNPELRVNSTKSMIGHLLGAAGGVAAVATIQAIRTGWVHPNINLENPDNGVDAKVLVGSKKERLDVKAALSNSFGFGGHNSSIIFAPY
Regarding B4, the synthase activity: condensation of [2-14C]malonyl-CoA with C16:0-ACP to C18:0-ACP (counts per minute per minute) in data set [6] amounted to 2160. In addition, the synthase activity: condensation of [2-14C]malonyl-CoA with C10:0-ACP to C12:0-ACP (counts per minute per minute) in [7] was 890.
